T1: S. cerevisiae ribonucleotide reductase RR1 (ScRR1), wild type (S. cerevisiae, UniProt P21524 1-888)
T1 sequence: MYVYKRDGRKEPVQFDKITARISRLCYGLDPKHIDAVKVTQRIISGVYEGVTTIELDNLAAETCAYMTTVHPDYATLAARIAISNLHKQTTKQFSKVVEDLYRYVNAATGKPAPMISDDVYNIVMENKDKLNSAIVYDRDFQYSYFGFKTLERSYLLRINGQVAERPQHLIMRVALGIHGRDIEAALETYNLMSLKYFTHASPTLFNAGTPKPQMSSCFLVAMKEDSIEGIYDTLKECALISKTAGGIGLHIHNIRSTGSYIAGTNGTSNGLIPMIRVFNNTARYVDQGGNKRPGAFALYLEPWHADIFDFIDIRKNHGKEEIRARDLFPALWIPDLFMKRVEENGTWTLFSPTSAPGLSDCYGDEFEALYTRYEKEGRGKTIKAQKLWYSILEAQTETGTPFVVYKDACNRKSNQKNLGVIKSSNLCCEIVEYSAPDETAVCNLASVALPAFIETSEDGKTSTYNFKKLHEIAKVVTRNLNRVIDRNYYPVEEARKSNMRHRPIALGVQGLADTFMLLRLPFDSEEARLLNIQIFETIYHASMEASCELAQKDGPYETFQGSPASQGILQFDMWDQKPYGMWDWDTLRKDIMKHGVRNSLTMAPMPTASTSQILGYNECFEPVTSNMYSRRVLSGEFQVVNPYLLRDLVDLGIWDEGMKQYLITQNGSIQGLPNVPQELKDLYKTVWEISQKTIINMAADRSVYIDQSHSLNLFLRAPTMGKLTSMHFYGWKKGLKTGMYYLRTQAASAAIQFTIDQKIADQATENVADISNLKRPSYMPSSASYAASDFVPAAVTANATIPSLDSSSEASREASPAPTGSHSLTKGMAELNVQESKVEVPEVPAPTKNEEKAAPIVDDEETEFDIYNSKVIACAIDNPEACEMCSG

T2: hRRM1 with the first 74 residues deleted (t-hRRM1) (human, UniProt P23921 75-792)
T2 sequence (looked up): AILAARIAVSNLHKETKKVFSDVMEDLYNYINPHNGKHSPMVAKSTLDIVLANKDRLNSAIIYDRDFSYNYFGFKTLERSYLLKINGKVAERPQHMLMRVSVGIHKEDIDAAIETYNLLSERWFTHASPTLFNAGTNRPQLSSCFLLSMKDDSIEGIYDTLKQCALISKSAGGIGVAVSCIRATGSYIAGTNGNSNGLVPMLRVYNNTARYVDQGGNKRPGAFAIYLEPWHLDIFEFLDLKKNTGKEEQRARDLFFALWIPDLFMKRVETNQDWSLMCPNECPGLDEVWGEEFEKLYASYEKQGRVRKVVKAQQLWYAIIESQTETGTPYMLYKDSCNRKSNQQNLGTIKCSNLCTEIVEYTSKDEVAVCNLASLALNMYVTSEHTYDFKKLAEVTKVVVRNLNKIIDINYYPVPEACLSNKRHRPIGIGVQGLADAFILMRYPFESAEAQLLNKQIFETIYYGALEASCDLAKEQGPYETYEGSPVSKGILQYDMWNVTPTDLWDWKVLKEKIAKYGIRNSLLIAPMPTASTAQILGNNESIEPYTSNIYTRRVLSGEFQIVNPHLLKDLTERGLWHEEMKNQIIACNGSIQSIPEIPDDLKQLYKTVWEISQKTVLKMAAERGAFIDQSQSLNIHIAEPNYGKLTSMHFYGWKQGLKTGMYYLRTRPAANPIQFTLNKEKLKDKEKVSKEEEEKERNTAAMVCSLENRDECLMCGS


How the values were obtained:
Assay in all cases: SEC
[1] = target: T1, S. cerevisiae ribonucleotide reductase …
[2] = target: the molecule itself
[3] = target: T2, hRRM1 with the first 74 residues …

binding result [1] | binding result [3] | Binder | stoichiometry N [2]
binds | – | yeast RR2●RR4 hetero-dimer (ScRR2●ScRR4) (complex, S. cerevisiae) chain 1: MPKETPSKAAADALSDLEIKDSKSNLNKELETLREENRVKSDMLKEKLSKDAENHKAYLKSHQVHRHKLKEMEKEEPLLNEDKERTVLFPIKYHEIWQAYKRAEASFWTAEEIDLSKDIHDWNNRMNENERFFISRVLAFFAASDGIVNENLVENFSTEVQIPEAKSFYGFQIMIENIHSETYSLLIDTYIKDPKESEFLFNAIHTIPEIGEKAEWALRWIQDADALFGERLVAFASIEGVFFSGSFASIFWLKKRGMMPGLTFSNELICRDEGLHTDFACLLFAHLKNKPDPAIVEKIVTEAVEIEQRYFLDALPVALLGMNADLMNQYVEFVADRLLVAFGNKKYYKVENPFDFMENISLAGKTNFFEKRVSDYQKAGVMSKSTKQEAGAFTFNEDF chain 2: MEAHNQFLKTFQKERHDMKEAEKDEILLMENSRRFVMFPIKYHEIWAAYKKVEASFWTAEEIELAKDTEDFQKLTDDQKTYIGNLLALSISSDNLVNKYLIENFSAQLQNPEGKSFYGFQIMMENIYSEVYSMMVDAFFKDPKNIPLFKEIANLPEVKHKAAFIERWISNDDSLYAERLVAFAAKEGIFQAGNYASMFWLTDKKIMPGLAMANRNICRDRGAYTDFSCLLFAHLRTKPNPKIIEKIITEAVEIEKEYYSNSLPVEKFGMDLKSIHTYIEFVADGLLQGFGNEKYYNAVNPFEFMEDVATAGKTTFFEKKVSDYQKASDMSKSATPSKEINFDDDF | –
– | binds | human ribonucleotide reductase small subunit hRRM2 (enzyme, UniProt P31350 1-389, looked up) MLSLRVPLAPITDPQQLQLSPLKGLSLVDKENTPPALSGTRVLASKTARRIFQEPTEPKTKAAAPGVEDEPLLRENPRRFVIFPIEYHDIWQMYKKAEASFWTAEEVDLSKDIQHWESLKPEERYFISHVLAFFAASDGIVNENLVERFSQEVQITEARCFYGFQIAMENIHSEMYSLLIDTYIKDPKEREFLFNAIETMPCVKKKADWALRWIGDKEATYGERVVAFAAVEGIFFSGSFASIFWLKKRGLMPGLTFSNELISRDEGLHCDFACLMFKHLVHKPSEERVREIIINAVRIEQEFLTEALPVKLIGMNCTLMKQYIEFVADRLMLELGFSKVFRVENPFDFMENISLEGKTNFFEKRVGEYQRMGVMSSPTENSFTLDADF | 2

Source: PMC3101628 (Nature structural & molecular biology, 2011)
